Source: PMC11743126, “CK2α-mediated phosphorylation of DUB3 promotes YAP1 stability and oncogenic functions” (Cell Death & Disease, 2025)

Molecular target: T1, His-DUB3 (UniProt Q6R6M4 1-530)
T1 construct: deubiquitinase DUB3 (USP17L2) cloned into pET30a; also called USP17L2; source: E. coli BL21, purified
T1 sequence (looked up): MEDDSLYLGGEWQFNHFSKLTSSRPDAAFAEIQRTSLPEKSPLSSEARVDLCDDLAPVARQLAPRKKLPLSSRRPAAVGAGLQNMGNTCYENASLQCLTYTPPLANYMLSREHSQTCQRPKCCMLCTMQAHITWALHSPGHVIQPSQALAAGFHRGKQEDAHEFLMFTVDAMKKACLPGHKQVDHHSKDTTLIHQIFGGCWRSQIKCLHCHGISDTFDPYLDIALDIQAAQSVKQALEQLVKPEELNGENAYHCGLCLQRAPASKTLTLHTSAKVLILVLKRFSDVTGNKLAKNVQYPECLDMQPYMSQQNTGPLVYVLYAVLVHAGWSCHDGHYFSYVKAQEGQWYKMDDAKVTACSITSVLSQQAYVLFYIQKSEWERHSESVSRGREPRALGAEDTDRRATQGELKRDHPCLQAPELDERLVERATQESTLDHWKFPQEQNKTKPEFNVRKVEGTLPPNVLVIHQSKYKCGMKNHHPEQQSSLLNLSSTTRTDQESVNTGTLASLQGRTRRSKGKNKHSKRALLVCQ
Test: pull-down; GST or GST-fusion protein on Pierce Glutathione agarose, incubated with purified His-tagged protein at 4 °C for 2 h; four washes; immunoblotting
Conditions: both partners purified

B1: GST-CK2α (Casein kinase II alpha, catalytic subunit) (enzyme, UniProt P68400 1-391, looked up)
chain: MSGPVPSRARVYTDVNTHRPREYWDYESHVVEWGNQDDYQLVRKLGRGKYSEVFEAINITNNEKVVVKILKPVKKKKIKREIKILENLRGGPNIITLADIVKDPVSRTPALVFEHVNNTDFKQLYQTLTDYDIRFYMYEILKALDYCHSMGIMHRDVKPHNVMIDHEHRKLRLIDWGLAEFYHPGQEYNVRVASRYFKGPELLVDYQMYDYSLDMWSLGCMLASMIFRKEPFFHGHDNYDQLVRIAKVLGTEDLYDYIDKYNIELDPRFNDILGRHSRKRWERFVHSENQHLVSPEALDFLDKLLRYDHQSRLTAREAMEHPYFYTVVKDQARMGSSSMPGGSTPVSSANMMSGISSVPTPSPLGPLAGSPVIAAANPLGMPVPAAAGAQQ
notes: Casein kinase II alpha (CK2α), catalytic subunit of CK2, cloned into pGEX4T-1; source: E. coli BL21, IPTG induced, pulled down on Pierce Glutathione agarose
  binding result: binds
